From article PMC6987245

What was measured:
[1] = biological target: TAMRA-labeled UBXN1 UBA(ext1-52) domain (UniProt Q04323); experiment: MST; TAMRA-UBA peptide in FP binding buffer, K6 diUb 1.53 to 50 μM, 30 min incubation, hydrophobic capillaries, Monolith NT.115, 30% LED and 40% IR-laser power
[2] = biological target: TAMRA-labeled UBXN1 UBA(ext1-52) domain (UniProt Q04323); experiment: fluorescence polarisation; 5 nM TAMRA-labeled UBA peptide fixed, diubiquitin 0.78 to 25 μM in six steps, triplicate; overnight incubation at 4°C, read at room temperature; 20 mM Tris pH 7.6, 150 mM NaCl, 0.5 mg/ml BGG, 1% TX-100; one site binding (hyperbola) fit

UniProt Q04323, sequence (Q04323 1-52): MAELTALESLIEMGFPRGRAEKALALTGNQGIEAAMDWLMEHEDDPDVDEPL

K6-linked diubiquitin (native, unlabeled) (from UniProt P0CG48 1-76; P0CG48 1-76)
Kd [1]: 1050 nM | Kd [2]: 1430 nM
